# Measured values reported in patent US20250051266A1, “Novel GLV-Phenolamide: Biosynthesis and Function in Protecting Plants from Herbivore Attack” (Max-Planck-Gesellschaft zur Förderung der Wissenschaften …, priority 2021, published 2025).
# Assays:
# Format in all cases: biochemical, Nicotiana attenuata
# Conditions in all cases: other substrate fixed ((Z)-3-hexenal 1 mM or caffeoylputrescine 80 μM)
# [1] = substrate: CC/C=C\CC=O; experiment: Steady-state Michaelis-Menten kinetics of NaPPO1 (with or without NaBBL2)
# From the text: (§1) FIG. 49 Michaelis-Menten kinetics of PPO1 and BBL2 with different concentrations of caffeoylputrescine and (Z)-3-hexenal. Steady-state kinetics of caffeoylputrescine or (Z)-3-hexenal conversion to CPH catalyzed by PPO1 purified from E. coli B121 expressing PPO1. Error bars represent the standard error of the means (SEM) from three independent measurements of reaction velocity. The kinetic constants, apparent Km and Vmax (Table 2), and their standard errors were inferred using nonlinear Michaelis-Menten curve-fitting in GraphPad Prism (v. 9.0d). Substrate concentration for (Z)-3-hexenal was 1 mM.
# as §1, with “FIG. 51” for “FIG. 49”, “Vmax (see Table” for “Vmax (Table”, “for caffeoylputrescine” for “for (Z)-3-hexenal”, “was 80 μM.” for “was 1 mM.”
# (§2) Steady-state kinetics of NaPPO1, NaPPo2 and NaBBL2 enzymes: For steady-state kinetic analysis, the ability to oxidize N-caffeoylputrescine was tested in 84 mM acetate buffer (pH 4.8) at 22° C. water bath, containing 1 mM (Z)-3-hexnal, 1 mM FAD, 32 μg NaPPO1/NaPPO2, 30 μg/90 μg NaBBL2 (total volume 100 μL); assays lacking NaBBL2 enzymes served as negative controls.
# (§3) The following eight N-caffeoylputrescine final concentrations were each tested at three independent experiments: 10, 20, 40, 60, 80, 120, 140, and 160 μM. Likewise, the ability to catalyze (Z)-3-hexnal was tested in 84 mM acetate buffer (pH 4.8) at 22° C., containing 80 μM N-caffeoylputrescine, 1 mM FAD, 32 μg NaPPO1/NaPPO2, 30 μg/90 μg NaBBL2 (total volume 100 μL); again, assays lacking NaBBL2 enzymes served as negative controls. The following eight (Z)-3-hexnal final concentrations were each tested in three independent experiments: 500, 600, 700, 800, 1000, 1200, 1600, and 2000 μM. The reactions were initiated by the addition of the corresponding recombinant enzymes and the components were mixed by briefly vortexing, and immediately returned to the 22° C. water bath for incubation. After 20 minutes, all the reactions were briefly vortexed, and 100 μL aliquot of each reaction was transferred to a cold Eppendorf tube (−20° C.) containing 100 μL of MeOH (with 600 ng/mL testosterone as an internal standard) to terminate enzyme activity. Samples were centrifuged at 16,000g, 4° C. for 30 min, and 150 μL supernatants were transferred into to 2 mL glass vials for LC/MS (1 μL injection volume) analysis under the same method as described previously. Standard curves for caffeoylputrescine using authentic standards (with 600 ng/mL testosterone as an internal standard) (FIG. 34) were used to calculate the concentrations of substrate and product in each assay sample. The kinetic constants for caffeoylputrescine and (Z)-3-hexnal, apparent Km and Vmax, were inferred using a nonlinear regression in GraphPad Prism 9 (FIG. 34).
# [2] = substrate: NCCCCNC(=O)/C=C/c1ccc(O)c(O)c1; experiment: as above
# From the text: as §1
# as §1, with “FIG. 51” for “FIG. 49”, “Vmax (see Table” for “Vmax (Table”, “for caffeoylputrescine” for “for (Z)-3-hexenal”, “was 80 μM.” for “was 1 mM.”
# as §2, §3
# [3] = substrate: CC/C=C\CC=O; experiment: Steady-state Michaelis-Menten kinetics of NaPPO2 (with or without NaBBL2)
# From the text: as §1, with “50” for “49”, “PPO2” for “PPO1”, “PPO2.” for “PPO1.”
# as §1, with “52” for “49”, “PPO2” for “PPO1”, “PPO2.” for “PPO1.”, “mM.Substrate concentration for caffeoylputrescine was 80 μM.” for “mM.”
# as §2, §3
# [4] = substrate: NCCCCNC(=O)/C=C/c1ccc(O)c(O)c1; experiment: as above
# From the text: as §1, with “50” for “49”, “PPO2” for “PPO1”, “PPO2.” for “PPO1.”
# as §1, with “52” for “49”, “PPO2” for “PPO1”, “PPO2.” for “PPO1.”, “mM.Substrate concentration for caffeoylputrescine was 80 μM.” for “mM.”
# as §2, §3
# [5] = other: PPO1 + BBL2 (30 μg), pH 4.8, 22.0 °C
# [6] = other: PPO1 + BBL2 (90 μg), pH 4.8, 22.0 °C
# [7] = other: PPO1 alone, pH 4.8, 22 °C
# [8] = other: PPO2 + BBL2 (30 μg), pH 4.8, 22.0 °C
# [9] = other: PPO2 + BBL2 (90 μg), pH 4.8, 22.0 °C
# [10] = other: PPO2 alone, pH 4.8, 22 °C
protein,measurement,setting,value
NaPPO1 (Nicotiana attenuata) (protein) MASSSTLPLCTTKTPFSSSTNSFFFAKPSHLFLNGKRNQSFKVSCTGEHDGNQLDAIKEGAVERRNVLLGLGGLYGAANLAPLASAAPVPPPDLKSCGPATITDGPTVSYSCCPPTPDDMDSVPYYKIPRMSKLRKRPAAQDVSEEYIAKYQLATSKMRELDKDPFDPLGFKQQANIHCAYCNDAYTMGDKKLQVHQSWLFFPFHRWYLYFYERILGSLIDDPTFALPYWNWDHPSGMRLPAMFDVEGSSLYDARRNPNVRNGTIIDLGFFGNEVKTNEIQMITNNLILMYRQMITNAPSPLLFFGEPYRFGSKPNPGQGTIENIPHTPVHIWTGTVRDTDLGNGVKSYGEDMGNFYSAGLDPVFYSHHANVDRMWNEWKALGGKRRDLTDKDWLNSEFFFYDENRDPWRVKVRDCLDSKKMGYDYEPKATPWRNFKPGKKTTPGKVNLRSVKPASKVFPLSNLDRAICFSIERPATSRSQQEKDEFEEVLTFKNLKYDDSRYIKFDVFVNADKTVNADDIDKTEYAGSYTSLPHVHGPNNATHVVEVEEFKLAITELLEDCGLEDDDIIAVTVVPKTGGEVVSIDCVLIELKAFY,Km,[1]; [5],870.67 ± 381.05 µM
same,Vmax,[1]; [5],0.10 ± 0.02 µM/mg/min
same,Km,[1]; [6],870.67 ± 381.05 µM
same,Vmax,[1]; [6],0.09 ± 0.02 µM/mg/min
same,Km,[1]; [7],853.22 ± 257.87 µM
same,Vmax,[1]; [7],0.09 ± 0.01 µM/mg/min
same,Km,[2]; [5],86.09 ± 15.34 µM
same,Vmax,[2]; [5],0.25 ± 0.02 µM/mg/min
same,Km,[2]; [6],95.52 ± 28.20 µM
same,Vmax,[2]; [6],0.26 ± 0.04 µM/mg/min
same,Km,[2]; [7],67.30 ± 10.59 µM
same,Vmax,[2]; [7],0.21 ± 0.01 µM/mg/min
NaPPO2 (Nicotiana attenuata) (protein) MASSSSSTLPLCASKTPSSSFTNTNSSFFAKPSQLFLHGKRNQNFKFSCNANSGEHDKNLDAVDRRNVLLGLGGLYGAANLAPLATAAPIPPPDLKSCSKAHINDQEEVSYSCCPPIPSDMDSVPYYKFPSMPKLRIRPAAHAADEEYIAKYQLATSRMRELDKDPFDPLGFKQQANIHCAYCNGAYKIGGKELQVHFSWLFFPFHRWYLYFYERILGSLINDPTFGLPYWNWDHPKGMRIPPMFDREGSSLYDARRNQSHRNGTIIDLGYFGTEVQTTQLQQMTNNLTIMYRQMITNAPCPLLFFGQPYPLGTDPSPGMGTIENIPHTPVHIWVGSGPNENNVQHGEDMGNFYSAGLDPLFYSHHANVDRMWSEWKALGGKRRDLTHKDWLNSEFFFYDENRNPFRVKVRDCLDSKKMGFDYAPMPTPWRNFKPIRKSNAGKVNLSSVPPASRVFPLSKLDRAISFSIDRPSSSRTQQEKNEQEEMLTFNNIKYDDSKYIRFDVFLNVDKTVNADELDKAEYAGSYTSLPHVHGDNASHVTSVTFQLAITELLEDIGLEDEDTIAVTVVPKTGGEEISIEGVEIKLVDC,Km,[3]; [8],662.39 ± 360.69 µM
same,Vmax,[3]; [8],0.021 ± 0.004 µM/mg/min
same,Km,[3]; [9],643.31 ± 217.25 µM
same,Vmax,[3]; [9],0.024 ± 0.003 µM/mg/min
same,Km,[3]; [10],673.35 ± 393.28 µM
same,Vmax,[3]; [10],0.023 ± 0.005 µM/mg/min
same,Km,[4]; [8],206.18 ± 49.95 µM
same,Vmax,[4]; [8],0.63 ± 0.09 µM/mg/min
same,Km,[4]; [9],207.19 ± 78.07 µM
same,Vmax,[4]; [9],0.67 ± 0.17 µM/mg/min
same,Km,[4]; [10],204.35 ± 51.37 µM
same,Vmax,[4]; [10],0.64 ± 0.10 µM/mg/min
